According to US20240409663A1 (CONCEPT TO MEDICINE BIOTECH, published 2024):

What was measured:
human GPC3 on cells [1] = molecular target: T1, human GPC3 on cells (human, UniProt P51654 25-554); experiment: FACS, GPC3-CHOK1 cells
T1 construct: whole, on cells; over-expressed on CHOK1 cells or endogenous on HEPG2, Hep3B and Huh-7 hepatocellular carcinoma cells; the cell line is named under assay; also called GPC3-CHOK1 cells; human GPC3 over-expressed CHOK1 cells
Protocol: Cell-based binding: FACS was used to evaluate the binding activity of chimeric mAbs (18C1D9, 52H5D3B8, 163E7D12, 172B4E9, 152E9F7 and 171F9C5) with comparison to a known GPC3 antibody GC33 (Chugai Pharmaceutical) on human GPC3 over-expressed CHOK1 cells.
Briefly, GPC3-CHOK1 cells were washed by FACS buffer and divided to each well with 3-fold serially diluted chimeric mAbs or GC33 mAb starting at 5 μg/mL at 4° C. for 40 mins. […] Samples were washed twice with FACS buffer.

cynomolgus GPC3 protein = molecular target: T2, cynomolgus GPC3 protein (cynomolgus, UniProt A0A2K5VK50 24-553, The natural protein carries heparan sulfate chains and may be cleaved by furin between the alpha (24-357) and beta (358-553) subunits, which stay disulfide-linked. It is written here as one …); experiment: ELISA, coated cynomolgus GPC3
T2 construct: protein coated on plates in the cross species ELISA
Protocol: (§1) ELISA testing was carried out to evaluate the binding of chimeric antibodies to human, mouse and cynomolgus GPC3, respectively.
(§2) Briefly, microtiter plates were coated with human, mouse and cynomolgus GPC3 proteins at 1 μg/ml in PBS, 100 μl/well at 4° C. overnight, then blocked with 150 μl/well of 1% BSA. Three-fold dilutions of chimeric antibodies starting from 9 μg/ml were added to each well and incubated for 1 hour at 37° C. The plates were washed with PBS/Tween and then incubate with mouse-anti-human IgG Fc antibody conjugated with Horse Radish Peroxidase (HRP) for 30 mins at 37° C. After washing, the plates were developed with TMB substrate and analyzed by spectrophotometer at OD 450 nm. The 52H5D3B8 antibody bound to human, cynomolgus GPC3 and mouse GPC3 (FIG. 3 and Table 4).

human GPC3 on cells [2] = molecular target: T1, human GPC3 on cells; experiment: FACS, Huh-7 cells
Protocol: To evaluate the antigen binding property, the humanized antibodies were analyzed for their binding to human GPC3 over-expressed CHOK1 cells and Huh-7 cells by FACS. Briefly, GPC3-CHOK1 cells and Huh-7 cells were firstly incubated with Fc blocking reagent at 4° C. for 15 mins. Cells were washed by FACS buffer and divided to each well with 4-fold serially diluted humanized antibodies starting at 10 μg/mL at 4° C. for 60 mins. Cells were washed by FACS buffer and fixed with 2% PFA at RT for 15 mins. […] As different plates might affect the EC50 of 52H5D3B8-VH+VL, the 12 humanized antibodies were separated into two plates.

mouse GPC3 protein = molecular target: T3, mouse GPC3 protein (mouse, UniProt Q8CFZ4 25-558, limits assumed); experiment: ELISA, coated mouse GPC3
T3 construct: protein coated on plates in the cross species ELISA
Protocol: as §1, §2

[3] = molecular target: T4, human GPC3-his tag protein (human, UniProt P51654 25-559, limits assumed); experiment: SPR Biacore 8K, mAb captured, affinity ranking
T4 construct: recombinant soluble antigen used as analyte in all Biacore runs; also called recombinant GPC3 protein; rhGPC3-His; not shown: His tag
Protocol: To evaluate antigen binding activity, the chimeric antibody's affinity was measured by Biacore 8K. Two concentrations with most close affinity to the chimeric antibody's affinity were chosen for the 12 humanized antibodies' affinity detection. Human GPC3-his tag protein was injected over captured antibody for 3 mins at a flow rate of 30 μl/min. The antigen was allowed to dissociate for 720 s.

T3 sequence (Q8CFZ4 25-558 limits assumed): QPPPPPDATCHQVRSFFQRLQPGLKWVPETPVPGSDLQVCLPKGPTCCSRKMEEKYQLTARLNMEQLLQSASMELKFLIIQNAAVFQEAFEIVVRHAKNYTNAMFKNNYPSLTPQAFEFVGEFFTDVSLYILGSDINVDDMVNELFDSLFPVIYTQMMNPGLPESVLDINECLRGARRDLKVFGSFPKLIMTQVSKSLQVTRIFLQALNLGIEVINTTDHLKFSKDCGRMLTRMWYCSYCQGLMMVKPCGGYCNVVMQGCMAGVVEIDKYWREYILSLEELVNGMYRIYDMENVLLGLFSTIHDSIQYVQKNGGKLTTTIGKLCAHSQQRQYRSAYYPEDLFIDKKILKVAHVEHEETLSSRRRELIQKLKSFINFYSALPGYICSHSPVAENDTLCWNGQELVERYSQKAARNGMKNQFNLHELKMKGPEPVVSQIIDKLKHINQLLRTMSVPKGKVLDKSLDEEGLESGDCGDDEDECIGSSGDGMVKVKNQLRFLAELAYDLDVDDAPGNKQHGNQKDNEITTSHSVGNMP

B1: 52H5D3B8 chimeric mAb (antibody, V domains shown)
VH: QVQLQQSGAELVRPGASVKLSCKALGYTFTDYEMHWVKQTPVHGLEWIGAIHPGSGGTAYNQKFKGKATLTADKFSSTGYMELSSLTSEDSAVYYCTRFYSYAYWGQGTLVTVSA
VL: DVVMTQTPLSLPVSLGDQASISCRSSQSLVHSNGNTYLQWYLQKPGQSPKLLIYKVSNRFSGVPDRFSGSGSGTDFILKISRVEAEDLGVYFCSQSIHVPYTFGGGTKLEIK
notes: also called 52H5D3B8-VH+VL; chimeric 52H5D3B8 mAb
Work on B1 yielded an EC50 (human GPC3 on cells [1]) of 0.0909 µg/mL, an EC50 (cynomolgus GPC3 protein) of 0.0152 µg/mL and an EC50 (human GPC3 on cells [2]) of 0.0469 µg/mL. For the same binder, the EC50 (mouse GPC3 protein) was 4.95 µg/mL, the Kd [3] was 1.41 nM and the koff [3] was 0.00049 s⁻¹. The kon [3] was 347000 M⁻¹ s⁻¹.
